From paper PMC4457907

Experiments:
[1] = molecular target: T1, AtrA (Streptomyces coelicolor) (UniProt Q9KYF2); test: EMSA; settings: SlbR EMSA: 0.5x TBE pH 8.0, 0.0375% glycerol, 5 mM MgCl2, 1 mM DTT, 7.5 ug salmon sperm DNA in 20 ul, 30 min room temperature; AtrA EMSA: as Uguru et al. 2005 …
T1 sequence: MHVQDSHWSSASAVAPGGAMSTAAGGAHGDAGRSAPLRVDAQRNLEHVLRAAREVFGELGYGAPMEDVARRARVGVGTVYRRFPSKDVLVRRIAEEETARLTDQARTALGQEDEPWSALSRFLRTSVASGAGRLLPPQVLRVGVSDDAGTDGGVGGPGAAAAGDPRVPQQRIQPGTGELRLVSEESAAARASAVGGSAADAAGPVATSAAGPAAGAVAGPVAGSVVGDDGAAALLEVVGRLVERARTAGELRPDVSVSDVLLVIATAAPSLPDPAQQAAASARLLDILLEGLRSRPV

[2] = system: AtrA (Streptomyces coelicolor); test: EMSA; settings: SlbR EMSA: 0.5x TBE pH 8.0, 0.0375% glycerol, 5 mM MgCl2, 1 mM DTT, 7.5 ug salmon sperm DNA in 20 ul, 30 min room temperature, AtrA EMSA: as Uguru et al. 2005 …

AGCCGCGGGAACCAACGTCGCACGGCATGATCACGCAGGTCAGCGTGGGTGAGTGGGGGTTCGGAGGGGGGCACATCCGGGGCGGGCGCCATCCGTGCTCCGATCGGGGGGCGCTCCGTGCGGAACGTGCCCCTTCTGAATTGACCCCCGCTCAACTATGTTCTTTCCCACGGTGTGTAG (double strand) [SCO4119 promoter probe (179 bp)]
binding signal [1]: binds more weakly

GTGAGAGCCGTGGGACACCGGTGGCGGTAACAGGAACCACCGGTTCCCTCGGGCGAGGGAAGTTTCCCGGACGGACCGTCGGTGAGCGGTGACCGACGGTTAGAGTCCGGAACTCCACGCGGGGGCGACTCCGCGAATGGCGCACCCCCCACCCGTGTTCGCCGCACGGGCCGCCACCTCGCGTTCCGGGAGTGATCCTTGGCCACGGCTGACACCGCATTCGCT (double strand) [ssgR promoter probe (224 bp)]
Kd [1]: 1.2 µM

actII-ORF4 site 2 probe (100 bp)
Kd ([2]; cited from earlier work): 0.15 µM

ssgR promoter probe (224 bp)
Kd ([2]; apparent Kd', 5 nM probe): 1.2 µM
